Measured values published in the nanobody polyreactivity screen of Harvey et al. (2022).

Experiment: yeast display, Sf9 membrane polyspecificity reagent, FACS + sequencing; frameworks hold sequencing errors
Procedure, shortened: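 Using colony PCR, genes from sorted yeast display clones were amplified, then sequenced on MiSeq at 2 × 250 and filtered by CDR length. The clones had been stained with 10% biotinylated, detergent-solubilized Sf9 membrane reagent for 1 hour at 4 °C and sorted by FACS into low and high (top ~1%) gates on anti-HA and streptavidin fluorescence. Polyreactivity labels come from the gate of origin.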

Row | Sequence | polyreactivity (PSR sort gate)
1 | QVQLVESGGCLVQAGGSLRLSCAASGFIISSYVMGWYSQEPGKERELVAAITSGTSTYYADSVKGRFTFSRDNAKNTVYLQMNSLKPEDTAVYYCTADSYHTYYYWYDYWGQGTQVTVSS | low polyreactivity
2 | QVQLVESGGCLVQAGGSLRLSCAASGFTFLDYVMGWYRPAPGKERELVAVITVSGGSTYYADSVKGRFTISRDNAKNTVYLQMTSLKPEDTAVYYCNAYTIEYPFGDSYWYNYDYWGQGTQVTVSS | high polyreactivity
3 | QVQLVESGGCLVQAGGSLRLSCAASGFTFRWYTMGWYRQAPGKERELVAAITGSGCTTYYADSVKGRFTISRDNAKNTVYLQMNSVKPEDTAVYYCAAQYFPSRGWSKGYDYWGHGTQVTVSS | high polyreactivity
4 | QVQLVESGGCLVQAGGSLRLSCAASGFTFYAYTMGWYRQAPGKERELVAAITKTGSRTYYADSVKGRFTISRDNAKNTVYLQMNSLKPEDTAVYYCAAASYIRVKGISRYDSWGQGTQVTVSS | high polyreactivity
5 | QVQLVESGGCLVQAGGSLRLSCAASGLTFADNAMGWYRQAPGKERELVATISYSGGSTYYADSVKGRFTISRDNAKNTVYLQMNSLKPEDTAVYYCAADGNSTGVYLDGGEGFAYDYWGQGSQVTVSS | low polyreactivity
6 | QVQLVESGGCLVQAGGSLRLSCAASGLTFPKYSMGWYRQAPGKERELVARISYSGASTYYADSVKGRFTISRDNEKNTVYLHMIILKPEDTAVYYCDARIYRVYYVNFAPYYYWGQGTQVTVSS | high polyreactivity
7 | QVQLVESGGCLVQAGGSLRLSCAASGLTIAYYAMGWYRQAPGKERDLVAAITSSGTSTYYADSVKGRFTISRDNAKNTVYLQMNSLKPEDTAVYYCNKYPYFVYGDYGYWGQGTQVTVSS | high polyreactivity
8 | QVQLVESGGCLVQAGGSLRLSCAASGRIFGLYAMGWYRQAPGKEREFVAAISSSGSDTYYADSVKGRFTISRDNAKNTVYLQINSLKPDYTAVYYCAKRRLYLCFDYNSSAYEYGYWGQGTQVTVSS | low polyreactivity
9 | QVQLVESGGCLVQAGGSLRLSCAASGRIFGYYAMGWYRQEPWKERELVAAISYSGGTTYYADSVKGRFTISRDNAKNTVYLQMNSLKPEDTAVYYCAAESYTYYADYGYGYWGQGTQVSVSS | high polyreactivity
10 | QVQLVESGGCLVQAGGSLRLSCAASGRIFIRYTMGWYRQAPGKERELVAAISKSGGRTYYADSVKGRFTISRDNAKNTDYLQMNSLKPEYTAVYDCNKDTDSQYSWGQGTQVTVSS | high polyreactivity
11 | QVQLVESGGCLVQAGGSLRLSCAASGRIFNYNAMGWYRQAPGKARELVAVITSGDSTNYADSVKGRFTISRDNAKNNVYLQMNSLKPEDTAVYYCAAEYYSIRYGPHSIEVYGMDYWGQGTQVTVSS | low polyreactivity
12 | QVQLVESGGCLVQAGGSLRLSCAASGRIFPGYAMVWYRQAPGKERELVAAISASGGSTYYADSVKGRFTISRDNAKNSVYFQIISLKPEDTAVYYCNAVYRLIRFDYWGQGSQVTVSS | high polyreactivity
13 | QVQLVESGGCLVQAGGSLRLSCAASGRIFRRYAMGWYRQAPGKERELVASITCGGSSTSYADSVKGRFTISRDNAKNTVYLQMNSLKPEDTAVYYCAKGGVFGTYLNEYDYCGQGTQVTVSS | low polyreactivity
14 | QVQLVESGGCLVQAGGSLRLSCAASGRNFGTYAMGWYRQATGKERELVAASTRGGTTYYADSVKGRFTISRDNAKNTVYLQMNSLTQEDTAVYYCATGPAIRYDYWGQGTQVTVSS | low polyreactivity
15 | QVQLVESGGCLVQAGGSLRLSCAASGRTFYRYAMGWSRQAPGKERELVATISSRGTSTYYADSVKGRFTISRDNAKNTVYLQMNSLKPEDTAVYYCAVRGYAAGRHGYAYWGQGTQVTVSS | high polyreactivity
16 | QVQLVESGGCLVQAGGSLRLSCAASGRTIRENVMGWYIQAPGKERELVAAITGNDGTTYYADSVKGRFTISRDNAKNTVNLQMNSLKPEDTAVYYCASERGDSAYRKYDYWGQGTQVTVSS | low polyreactivity
17 | QVQLVESGGCLVQAGGSLRLSCAASGSIFDSNPKGWYRQAPGKERELVAAITGSGTSTYYADSVKGRFTISRDNAKNTVYLQMNSLKPEDTALNYCAAAPEYLTDHDYWGQGTQVTVSS | low polyreactivity
